Laboratory results: paper PMC7311396 (2020)
Non-standard residues stand in square brackets, D forms with d. No end group written: not given here. Phe(4-NO2) = N[C@@H](Cc1ccc([N+](=O)[O-])cc1)C(=O)O; pS = N[C@@H](COP(=O)(O)O)C(=O)O; βAla = NCCC(=O)O

B1: 14-3-3γ (natural protein)
chain: MVDREQLVQKARLAEQAERYDDMAAAMKNVTELNEPLSNEERNLLSVAYKNVVGARRSSWRVISSIEQKTSADGNEKKIEMVRAYREKIEKELEAVCQDVLSLLDNYLIKNCSETQYESKVFYLKMKGDYYRYLAEVATGEKRATVVESSEKAYSEAHEISKEHMQPTHPIRLGLALNYSVFYYEIQNAPEQACHLAKTAFDDAIAELDTLNEDSYKDSTLIMQLLRDNLTLWTSDQQDDDGGEGNN

How the values were obtained:
FITC-labeled 14-3-3.1 = FITC-labeled 14-3-3.1 (FITC label (position not given); phosphoserine fixed in the middle, flanked by four varied positions on either side; non-canonical amino acids; C-terminal motif Nph-β-Ser-(β-Ala/β-Ser)-Nph; …); experiment: FP
14-3-3γ [1] = target: B1; experiment: FP
14-3-3γ [2] = target: B1; experiment: FP; competition with FITC-BiExoS

For B1, the Kd (FITC-labeled 14-3-3.1) was 5.7 nM.

B2: FITC-labeled 14-3-3.12 (peptide)
chain: KVF[thiazolylalanine][pS][Phe(4-NO2)]S[βAla][Phe(4-NO2)]K-NH2
modifications: not fully specified (residue 7); also: FITC label, position not given here, position 7 is a β-residue, identity not given here
Work on B2 yielded a Kd (14-3-3γ [1]) of 19 nM.

B3: 14-3-3.12, unlabeled (peptide)
chain: KVF[thiazolylalanine][pS][Phe(4-NO2)]S[βAla][Phe(4-NO2)]K-NH2
modifications: not fully specified (residue 7); also: position 7 is a β-residue, identity not given here
In the case of B3, the IC50 (14-3-3γ [2]) is reported as 198 nM.
